Experimental data published in patent US8361965B2, “Recombinant chimeric protein of neutrophil inhibitory factor and hirugen, and pharmaceutical composition thereof” (Lunan Pharmaceutical Group Corporation, priority 2008, dated 2013).
“Also recorded” adds a separate entry of the source. Like-named read-outs stand apart in the source and are kept apart here.

B1: NHH: bifunctional chimeric protein NIF-(Gly)5-hirugen, 274 amino acids, of Chinese patent application 031011551; control protein (protein)
chain: NEHNLRCPQNGTEMPGFNDSIRLQFLAMHNGYRSKLALGHISITEESESDDDDDFGFLPDFAPRASKMRYLEYDCEAEKSAYMSARNCSDSSSPPEGYDENKYIFENSNNISEAALKAMISWAKEAFNLNKTKEGEGVLYRSNHDISNFANLAWDAREKFGCAVVNCPLGEIDDETNHDGETYATTIHVVCHYPKINKTEGQPIYKVGTPCDDCSEYTKKADNTTSADPVCIPDDGVCFIGSKADYDSKEFYRFRELGGGGGNGDFEEIPEEYL
B2: NIF: Neutrophil inhibitory factor, 257 amino acids; prepared by Chongqing Fujin Biology and Medicine Company (protein)
chain: NEHNLRCPQNGTEMPGFNDSIRLQFLAMHNGYRSKLALGHISITEESESDDDDDFGFLPDFAPRASKMRYLEYDCEAEKSAYMSARNCSDSSSPPEGYDENKYIFENSNNISEAALKAMISWAKEAFNLNKTKEGEGVLYRSNHDISNFANLAWDAREKFGCAVVNCPLGEIDDETNHDGETYATTIHVVCHYPKINKTEGQPIYKVGTPCDDCSEYTKKADNTTSADPVCIPDDGVCFIGSKADYDSKEFYRFREL

How the values were obtained:
leukocyte adhesion = assay: anti-leukocyte adhesion activity, in vitro comparative analysis; assay type: cell-based; conditions: in vitro
[1] = test system: cerebral ischemia in rats subjected to middle cerebral artery occlusion; assay type: in vivo, Wistar rats; conditions: for behavioral score / pathological section of brain (cerebral cortex nerve cells): 2 mg/kg bid caudal vein; for behavioral score: full score 11; for pathological section of brain (cerebral cortex nerve cells): HE, compared with model group
[2] = test system: experimental cerebral hematoma in rats; assay: effects on experimental cerebral hematoma in rats; assay type: in vivo, SD rats; parameters: key to behavioral score: neurologic defect score, full score 11; higher = more severe disorder; conditions: for behavioral score / Brain water content (%): 2 mg/kg bid caudal vein; for behavioral score: full score 11; for Brain water content (%): dry and wet method; for degree of pathological change, remaining cases: 2-3 cases per group
Procedure: SD rats were randomly divided into 4 groups (8 animals per group), including model group, NHH group, NIF group and TNHH group. The rats in each group were anesthetized by chloral hydrate, and then 0.1 ml blood was collected by amputation of tail. The rats were fixed in a stereotaxic apparatus. Median incision of scalp was performed and the periosteum was cut open to expose bregma. Subsequently, a small hole with a diameter of 1 mm was perforated for needle insertion of microsyringe fixed on the stereotaxic apparatus with insertion depth of 5.8 mm (i.e to the position of caudate nucleus) at the site which was 1 mm rearward to the bregma and 3 mm left to the midline, and then 0.1 ml autoblood was injected slowly. Neurological functional defect score was immediately evaluated based on the evaluation criterion after the animal got conscious. The animal with behavior score less than 11 was selected in this study. Behavior score evaluation was continuously carried out after the establishment of model till the end of the experiment.
The neurologic function defect score was evaluated at 5 time points of 4 h, 12 h, 24 h, 48 h and 72 h after the model establishment. Changes of brain water content and histopathological observation were performed at 72 h after the model establishment on sacrificed rats.
Corresponding medicaments (2 mg/kg, bid) were administered through the caudal vein to animals with administration volume of 1 ml/100 g in each group after model animal was successfully established (according to the score less than 11 based on the behavior score evaluation), while the model group received physiological saline in the corresponding volume.
The brain was taken out immediately after the sacrifice of animals, and then […] ectocinerea (cortex was removed) at the edge of haematoma was collected. The brain water content was determined using dry and wet method based on the following formula: Brain water content=(wet weight−dry weight)/wet weight×100%
The brain was immediately taken out by decollation at selected time points, and it was sliced up to be 2 mm thick along the coronal section and then fixed in 10% formaldehyde. The slices were stained by regular HE and mounted. Then the pathological changes occurred in pathological region and the neighboring brain tissues were observed.
Evaluation was performed at the time of 4 h, 12 h, 24 h, 48 h and 72 h after surgery. The method was described as follows:
The flection of forelimbs was observed by lifting the rat by its tail. If the forelimbs symmetrically extended toward the floor, the score was 0. While if wrist flection, or elbow inflection, or internal rotation of shoulder, or both elbow inflection and internal rotation of shoulder occurred to forelimbs of the rat on the opposite side of the surgery part, it was evaluated as scores of 1, 2, 3 and 4, respectively.
The animal was placed on flat floor, and then both shoulders were pushed to move towards the opposite side to examine the resistance. If the resistances on both sides were equal and forceful, it was evaluated as 0. While if the resistance decreased slightly, mildly or severely when pushed to the opposite side of the surgery part, it was evaluated as 1, 2 or 3, respectively.
Both forelimbs of the animal were placed on a metal mesh to observe the muscular tension. The rat with equal and forceful muscular tension of both forelimbs was evaluated as 0. In the same way, the rat was evaluated as 1, 2 or 3, respectively with the reduction of muscular tension on the opposite side of the surgery part mentioned above.
The animal tended to keep turning around to one side was evaluated as 1. Based on the evaluation criterion (with full score of 11), the higher the score was evaluated, the more severe the behavior disorder was.

thrombin = thrombin (Homo sapiens, UniProt P00734); assay: antithrombin activity, in vitro comparative analysis; assay type: biochemical; parameters: TNHH-G15/n3 and TNHH have the same antithrombin activity
[3] = 2 mg/kg bid, brain pathological section

Molecule	anti-leukocyte adhesion activity (leukocyte adhesion) [Unit/mg]	behavioral score ([1]; 4 h)	behavioral score ([1]; 8 h)	behavioral score ([1]; 24 h)	behavioral score ([1]; 48 h)	behavioral score ([1]; 72 h)	pathological section of brain (cerebral cortex nerve cells) [1]	Cerebral infarction volume (%) ([1]; 72 h)	behavioral score ([2]; 4 h)	behavioral score ([2]; 12 h)	behavioral score ([2]; 24 h)	behavioral score ([2]; 48 h)	Brain water content (%) ([2]; 72 h)	behavioral score ([2]; 72 h)	degree of pathological change, remaining cases [2, 3]	degree of pathological change, most cases ([2]; 2 mg/kg bid, brain pathological section, model group mostly ++→+++)	antithrombin activity (thrombin)
B1	650	8.2 ± 1.7	8.2 ± 1.7	8.0 ± 1.4	6.5 ± 1.4	5.7 ± 1.2	less pathological changes; also recorded: less regular arrangements, a portion of deeply stained nucleus, and some cytoplasmic shrinkage or disappearance	25.2 ± 5.2	2.14 ± 0.69	1.86 ± 0.90	2.43 ± 1.00	2.57 ± 0.13	78.66 ± 0.55	3.57 ± 1.72	+→++	–	–
B2	750	6.2 ± 0.8	6.5 ± 1.2	5.5 ± 0.5	5.5 ± 0.4	5.5 ± 0.5	less pathological changes; also recorded: less regular arrangements, a portion of deeply stained nucleus, and some cytoplasmic shrinkage or disappearance	24.9 ± 9.6	1.86 ± 0.90	2.14 ± 0.90	2.43 ± 0.53	3.14 ± 0.90	79.36 ± 0.47	4.14 ± 1.68	+→++	±→+	None
